Experiments:
Test in all cases: co-IP
[1] = molecular target: Caf4p-HTM (S. cerevisiae) (UniProt P36130)
[2] = molecular target: M3TH-Fis1p (3XMyc/TEV/His8-Fis1p) (S. cerevisiae) (UniProt P40515)
[3] = molecular target: Mdv1p-HTM (S. cerevisiae) (UniProt P47025)

Sequence of UniProt P40515 (P40515 whole entry): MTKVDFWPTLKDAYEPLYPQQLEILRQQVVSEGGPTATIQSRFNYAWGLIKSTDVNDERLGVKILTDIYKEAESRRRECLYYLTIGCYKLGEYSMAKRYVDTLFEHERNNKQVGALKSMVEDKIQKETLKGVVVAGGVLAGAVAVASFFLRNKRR

“Caf4p-HA (Caf4p wt, residues 1–659) (from UniProt P36130 1-643) (natural protein)” gave a percent coimmunoprecipitated [1] of 5%, a percent coprecipitated [2] of 5% and a percent coprecipitated [3] of 1%.

“Caf4p-N-HA (residues 1–274) (from UniProt P36130 1-274) (domain or fragment)” showed a percent coimmunoprecipitated [1] of 5% and a percent coprecipitated [3] of 1%.

B1: Mdv1p-HA (Mdv1 wt, residues 1–714) (natural protein)
chain: MSVNDQITHIGKTLSTTASAFLNYQKSNSNTQDVLTNNGPYKNLLSNTVNNASSTSYFYKRTEHGRFVKNASNTFEDIYSKTRRGDVFRNKFTDNKTCFRMLTYISDDLLNEIPTKEGLKSDADGKLLTEGGENENLRKNASKKETSLFQGFKSYLPIAELAIENTERLNYDTNGTSGTVGAKDVMSKTNERDEIHTELPNFQDSFLIPPGVETKKISSSYSPSALKSFSQTLVNSLEFLNIQKNSTLSEIRDIEVEVENLRQKKEKLLGKIANIEQNQLLLEDNLKQIDDRLDFLEEYGLEVIEANSDENAEDDGMSERKALKNDAIRNEGVTTESISSEASNLPPRRRQQLRDDNSLNRLGAFYSKSKKRHRKSFPTFQQLYEPGTKIGSIMSTHDDFLTCLDFDAPFGTLCTAGYLDHTVKIWDLSKQNKIGELAGHLATINCMQINRDYGTLVTGGRDAALKLWNLNLAQQLYQETQNLTSPTNHIDSPCVHTFEAHTDEVTALSLDPSFLVSGSQDRTIRQWDLRSGKCLQTIDLSFANVLTTSTNVDLSKSTLLTQRNERPSIGALQSFDAALATGTKDGVVRLWDLRSGKVIRTLKGHTDAITSLKFDSACLVTGSYDRTVRIWDLRTGLLNKFHAYSAPVLSLDLFQENAAVVVADEPSVQIYDSEKDESWSCVEQGNETSVSTVKYKENYMVEGRENGDVNIWAV
B1 was tested, and the percent coprecipitated [1] was 1%.

B2: Mdv1p-N-HA (residues 1–300) (domain or fragment)
chain: MSVNDQITHIGKTLSTTASAFLNYQKSNSNTQDVLTNNGPYKNLLSNTVNNASSTSYFYKRTEHGRFVKNASNTFEDIYSKTRRGDVFRNKFTDNKTCFRMLTYISDDLLNEIPTKEGLKSDADGKLLTEGGENENLRKNASKKETSLFQGFKSYLPIAELAIENTERLNYDTNGTSGTVGAKDVMSKTNERDEIHTELPNFQDSFLIPPGVETKKISSSYSPSALKSFSQTLVNSLEFLNIQKNSTLSEIRDIEVEVENLRQKKEKLLGKIANIEQNQLLLEDNLKQIDDRLDFLEEYG
B2 gave a percent coprecipitated [1] of 1%.

From publication PMC2171414
